The source of these data is FireProtDB (doi:10.1016/0022-2836(92)90557-z).

The chains are these.
B1: Ribonuclease, P00648 (parent)
chain: MMKMEGIALKKRLSWISVCLLVLVSAAGMLFSTAAKTETSSHKAHTEAQVINTFDGVADYLQTYHKLPDNYITKSEAQALGWVASKGNLADVAPGKSIGGDIFSNREGKLPGKSGRTWREADINYTSGFRNSDRILYSSDWLIYKTTDHYQTFTKIR

The data set covers variants of B1. The settings on record: Bacillus amyloliquefaciens; pH 6.3; 25 °C; Urea; Fluorescence; MES 1.00 M; NaCl 613 mM; reversible: yes; structure 1BNI; whole UniProt chain shown.

Consider D55A D59A R157A, for which the “ddG of mutation (higher = less stable)” value is -0.11 kcal/mol and the “denaturant midpoint (higher = more stable)” value (shortened to “denaturant midpoint”) came to 4.63 M.

D55A D59A: the “ddG of mutation (higher = less stable)” value was determined as 0.89 kcal/mol and the “denaturant midpoint” value was determined as 4.16 M.

On to D59A, for which the “ddG of mutation (higher = less stable)” value was 0.34 kcal/mol and the “denaturant midpoint” value amounted to 4.42 M.

R157A: the “ddG of mutation (higher = less stable)” value came out at 0.46 kcal/mol and the “denaturant midpoint” value worked out at 4.37 M.

For D55A R157A, the “ddG of mutation (higher = less stable)” value was 0.47 kcal/mol and the “denaturant midpoint” value turned out to be 4.36 M.

On to D55A, for which the “ddG of mutation (higher = less stable)” value came out at 0.99 kcal/mol and the “denaturant midpoint” value came to 4.12 M.
